Tested on: Smc5/6 holo-complex, Cy3-labelled (8 subunits) (Saccharomyces cerevisiae (expressed in W303-1a))
Experiment: single-molecule optical tweezers with confocal fluorescence, lifetime
Details: biotin at the two ends, Single-molecule buffer not given in the material (20 nM Cy3-Smc5/6 and 2 mM ATP in Fig. 6b; ~5 or ~60 pN), entrapment: 10 mM HEPES-KOH pH 7.5, 150 mM KAc

Row | Substance | binding signal (5 nM Smc5/6 then buffer only, high force) [s] | binding signal [s]
1 | lambda DNA tether, ss-dsDNA junctions at high force (~60 pN) | > 290 | 
2 | lambda DNA tether, dsDNA (low force ~5 pN, or dsDNA regions at high force) |  | 76
